Assays:
CCc1cccc(O)c1O = experiment: purified protein; conditions: 0.1 M Tris-HCl pH 7.4, 0.1 mM MnCl2, 32.5 °C, 20 µg/mL enzyme, 0.05-1.0 mM substrate
Cc1cccc(O)c1O = experiment: purified protein; conditions: 0.1 M Tris-HCl pH 7.4, 0.1 mM MnCl2, 32.5 °C, 40 µg/mL enzyme, 0.2-1.2 mM substrate

## BLC23O (Halalkalibacterium ligniniphilum)
CCc1cccc(O)c1O
  Km: 193 ± 17 µM
  kcat: 0.47 ± 0.09 s⁻¹
  kcat/Km: 2400 M⁻¹ s⁻¹
Cc1cccc(O)c1O
  Km: 418 ± 25 µM
  kcat: 0.2 ± 0.03 s⁻¹
  kcat/Km: 480 M⁻¹ s⁻¹
